One molecule from article PMC8031663, “Caveolin‐1‐driven membrane remodelling regulates hnRNPK‐mediated exosomal microRNA sorting in cancer” can be followed below.

The data set addresses hnRNPK (6xHis-GFP fusion) (Homo sapiens, UniProt P61978 1-463). Briefly: MST; Kd plotted in Fig 4B, value not in text; MST: 50 mM HEPES, 0.3 M KCl, pH 7.4, 40 nM RNA, protein dilution from 150 uM, temperature not stated; pull-down: 10 mM Tris-Cl pH 7.5, 20 mM KCl, 1.5 mM MgCl2. Conditions: protein: recombinant; tags: N-terminal 6xHis-GFP, TEV site; label: 5' 6-FAM; single strand.

Regarding UCAGUGCACUACAGAACUUUGU (ssRNA) [motif_mimic (miR-148a-3p)], the binding result is recorded as “binds”.
